Experiment [1] addresses αvβ6 integrin, purified from CHO αvβ6 cells (Homo sapiens (assumed), recombinant …, UniProt P06756;P18564). Briefly: ELISA. (An ELISA detects its analyte on a solid surface through an enzyme-linked reagent.)
Experiment [2] addresses αvβ3 integrin, immobilized (Homo sapiens (assumed), UniProt P06756;P05106). Nature of the experiment: ELISA.
Experiment [3] deals with αvβ6 integrin on A375Pβ6 cells (Homo sapiens (A375P alpha-V, human …, UniProt P06756;P18564)). Nature of the experiment: flow cytometry on cells. Background: Flow cytometry measures light scatter and fluorescence of single cells or particles in a stream.
αvβ6 integrin on A375Pβ6 cells (Homo sapiens, sequence (P06756 31-1048, stated change not applied, chain 1 of 2): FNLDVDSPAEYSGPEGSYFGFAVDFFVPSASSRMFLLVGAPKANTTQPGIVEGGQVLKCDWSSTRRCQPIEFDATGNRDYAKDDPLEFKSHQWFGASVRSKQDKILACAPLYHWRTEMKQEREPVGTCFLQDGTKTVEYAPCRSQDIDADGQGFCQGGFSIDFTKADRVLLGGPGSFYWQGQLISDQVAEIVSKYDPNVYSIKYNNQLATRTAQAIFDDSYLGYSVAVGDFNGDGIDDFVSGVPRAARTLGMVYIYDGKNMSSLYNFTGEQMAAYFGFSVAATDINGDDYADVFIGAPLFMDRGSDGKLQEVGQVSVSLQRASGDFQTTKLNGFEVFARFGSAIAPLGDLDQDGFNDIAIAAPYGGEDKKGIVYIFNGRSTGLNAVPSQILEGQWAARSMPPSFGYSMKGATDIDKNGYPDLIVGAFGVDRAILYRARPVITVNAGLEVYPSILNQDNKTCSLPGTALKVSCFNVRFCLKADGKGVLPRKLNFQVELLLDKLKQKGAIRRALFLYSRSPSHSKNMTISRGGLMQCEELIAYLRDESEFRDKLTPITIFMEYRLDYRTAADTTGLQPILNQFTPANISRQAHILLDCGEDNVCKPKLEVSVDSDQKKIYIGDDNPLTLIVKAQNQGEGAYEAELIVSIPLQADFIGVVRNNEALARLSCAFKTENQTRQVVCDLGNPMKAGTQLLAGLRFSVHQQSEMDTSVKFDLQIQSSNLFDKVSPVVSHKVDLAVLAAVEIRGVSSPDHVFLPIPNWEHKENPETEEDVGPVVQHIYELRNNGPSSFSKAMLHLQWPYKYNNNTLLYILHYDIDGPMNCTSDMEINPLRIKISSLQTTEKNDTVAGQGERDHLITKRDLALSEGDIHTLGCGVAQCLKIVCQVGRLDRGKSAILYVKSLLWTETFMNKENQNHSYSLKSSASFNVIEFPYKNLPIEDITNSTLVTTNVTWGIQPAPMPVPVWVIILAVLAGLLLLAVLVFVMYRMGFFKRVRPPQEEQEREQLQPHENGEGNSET
αvβ6 integrin on A375Pβ6 cells (Homo sapiens, sequence (P18564 22-788, chain 2 of 2): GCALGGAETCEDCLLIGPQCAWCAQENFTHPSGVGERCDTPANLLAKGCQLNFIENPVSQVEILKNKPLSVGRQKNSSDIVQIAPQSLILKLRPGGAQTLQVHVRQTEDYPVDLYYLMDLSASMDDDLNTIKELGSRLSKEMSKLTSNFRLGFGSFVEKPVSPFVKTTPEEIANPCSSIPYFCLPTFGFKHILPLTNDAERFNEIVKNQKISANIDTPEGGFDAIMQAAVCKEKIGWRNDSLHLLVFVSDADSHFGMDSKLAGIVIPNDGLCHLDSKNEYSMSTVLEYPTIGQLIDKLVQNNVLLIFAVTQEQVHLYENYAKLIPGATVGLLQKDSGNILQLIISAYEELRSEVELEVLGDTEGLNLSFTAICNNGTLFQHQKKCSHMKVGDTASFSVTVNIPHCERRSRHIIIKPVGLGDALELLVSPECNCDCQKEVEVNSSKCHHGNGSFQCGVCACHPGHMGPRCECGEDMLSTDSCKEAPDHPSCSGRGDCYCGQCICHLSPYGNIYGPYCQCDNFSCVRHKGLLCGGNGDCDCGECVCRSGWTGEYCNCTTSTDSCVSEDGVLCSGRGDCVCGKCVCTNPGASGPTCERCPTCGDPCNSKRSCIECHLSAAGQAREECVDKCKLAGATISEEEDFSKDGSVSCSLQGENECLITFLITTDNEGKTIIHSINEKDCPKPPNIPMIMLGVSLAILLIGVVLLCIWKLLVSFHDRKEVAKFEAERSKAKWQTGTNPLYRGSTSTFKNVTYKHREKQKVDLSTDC

αvβ6 integrin, purified from CHO αvβ6 cells, sequence (P06756 31-1048, chain 1 of 2): as the sequence (P06756 31-1048, stated change not applied, chain 1 of 2) above
αvβ6 integrin, purified from CHO αvβ6 cells, sequence (P18564 22-788, chain 2 of 2): as the sequence (P18564 22-788, chain 2 of 2) above
αvβ3 integrin, immobilized, sequence (P06756 31-1048, chain 1 of 2): as the sequence (P06756 31-1048, stated change not applied, chain 1 of 2) above
αvβ3 integrin, immobilized, sequence (P05106 27-718, chain 2 of 2): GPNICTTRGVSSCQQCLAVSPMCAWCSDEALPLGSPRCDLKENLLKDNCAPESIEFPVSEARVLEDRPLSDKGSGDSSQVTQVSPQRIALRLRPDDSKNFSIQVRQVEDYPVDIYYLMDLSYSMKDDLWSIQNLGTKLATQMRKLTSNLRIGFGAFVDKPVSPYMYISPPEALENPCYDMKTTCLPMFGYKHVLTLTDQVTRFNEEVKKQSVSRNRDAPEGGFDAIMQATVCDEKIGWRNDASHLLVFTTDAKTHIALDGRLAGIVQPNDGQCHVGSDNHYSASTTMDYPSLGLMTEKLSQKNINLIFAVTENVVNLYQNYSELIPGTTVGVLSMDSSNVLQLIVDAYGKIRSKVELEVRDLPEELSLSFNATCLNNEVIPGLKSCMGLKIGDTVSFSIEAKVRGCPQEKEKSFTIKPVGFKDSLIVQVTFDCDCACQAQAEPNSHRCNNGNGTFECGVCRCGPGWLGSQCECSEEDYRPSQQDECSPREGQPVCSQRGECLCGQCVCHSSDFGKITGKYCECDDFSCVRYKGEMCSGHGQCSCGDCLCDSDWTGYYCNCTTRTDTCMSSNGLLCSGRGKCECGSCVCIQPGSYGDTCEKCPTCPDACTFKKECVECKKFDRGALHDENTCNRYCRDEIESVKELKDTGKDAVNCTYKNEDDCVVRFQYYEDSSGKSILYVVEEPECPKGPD

B1: MFE-23 (scFv, V domains shown)
VH: QVKLQQSGAELVRSGTSVKLSCTASGFNIKDSYMHWLRQGPEQGLEWIGWIDPENGDTEYAPKFQGKATFTTDTSSNTAYLQLSSLTSEDTAVYYCNEGTPTGPYYFDYWGQGTTVTVSS
VL: ENVLTQSPAIMSASPGEKVTITCSASSSVSYMHWFQQKPGTSPKLWIYSTSNLASGVPARFSGSGSGTSYSLTISRMEAEDAATYYCQQRSSYPLTFGAGTKLELK
Turning to B1, the figures for the binding result in experiment [1], in experiment [2] and in experiment [3] were “no binding (tested: 5 μg/ml)”, “no binding (tested: 5 μg/ml)” and “no binding (tested: 50 μg/ml)”, respectively.

(Values after PMC2958364 (Journal of molecular biology, 2008).)
